Reference: the RNAGym collection of RNA variant scans (doi:10.1093/molbev/msab373)

B1: Azoarcus group I ribozyme (parent)
chain: GUGCCUUGCGCCGGGAAACCACGCAAGGGAUGGUGUCAAAUUCGGCGAAACCUAAGCGCCCGCCCGGGCGUAUGGCAACGCCGAGCCAAGCUUCGGCGCCUGCGCCGAUGAAGGUGUAGAGACUAGACGGCACCCACCUAAGGCAAACGCUAUGGUGAAGGCAUAGUCCAGGGAGUGGCGAAAGUCACACAAACCGG

Variants of: B1
Assay: reverse-splicing fitness (ratio to wild type); higher = more active; in vitro selection; Mg2+ level not given
Procedure, shortened: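 An in vitro group I ribozyme library with randomized positions was T7-transcribed and gel-purified. In triplicate, 10 pmol RNA in EPPS pH 7.5 was reacted with 50 pmoles of a 30-nt RNA substrate for 1 h at 37 °C across several added MgCl2 levels (1–48 mM), then stopped with EDTA. Products were reverse transcribed from a substrate-complementary primer, PCR-amplified and sequenced (HiSeq 4000). Fitness is a variant's read proportion after selection over that before, normalised to wild type.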

First: C82G A111C C150A U176G
Second: C82G A111C C150A U176C
The reverse-splicing fitness of the first is lower: 0.0116 for the first, 0.0293 for the second.

Going from C82G A111C C150A U176A to C82G A111G A120C A145U, the reverse-splicing fitness rises from 0.0223 to 0.0901.

Going from C82G A111G A120C A145G to C82G A111G A120C A145C, the reverse-splicing fitness falls from 0.0871 to 0.0798.

Going from C82G A111G A120C A145C C150A C169A U176G to C82G A111G A120C A145C C150A C169A U176A, the reverse-splicing fitness rises from 0.00653 to 0.0183.

First: C82G A111G A120C A145C C150A C169A U176C
Second: C82G A111G A120C A145U C150A
The reverse-splicing fitness of the first is lower: 0.00849 for the first, 0.0142 for the second.

Compared with C82G A111C A145G C150G C169U U176A, C82G A111C A145G C150G C169U U176C is higher in reverse-splicing fitness: 0.0103 for the first, 0.0116 for the second.

Going from C82G A111C A145G C150G C169U U176G to C82G A111C A145U C150A C169G U176A, the reverse-splicing fitness rises from 0.00728 to 0.0157.

Compared with C82G A111C A145U C150A C169G U176G, C82G A111C A145U C150A C169G U176C is higher in reverse-splicing fitness: 0.0081 for the first, 0.0181 for the second.

Compared with C82G A111C A145U C169U U176A, C82G A111C A145U C169U U176G is lower in reverse-splicing fitness: 0.0168 for the first, 0.00693 for the second.

Going from C82G A111C A145U C169U U176C to C82G A111G A120C A145C C150U C169G U176A, the reverse-splicing fitness rises from 0.0153 to 0.0242.

First: C82G A111G A120C A145C C150U C169G U176G
Second: C82G A111G A120C A145C C150U C169G U176C
The reverse-splicing fitness of the first is lower: 0.0061 for the first, 0.0152 for the second.

Compared with C82G A111G A120C A145C U176A, C82G A111G A120C A145C U176C is higher in reverse-splicing fitness: 0.0266 for the first, 0.035 for the second.

Compared with C82G A111G A120C A145C U176G, C82G A111C A145G C150U C169U U176A is higher in reverse-splicing fitness: 0.00938 for the first, 0.0129 for the second.

Compared with C82G A111C A145G C150U C169U U176G, C82G A111C A145G C150U C169U U176C is higher in reverse-splicing fitness: 0.0071 for the first, 0.0127 for the second.

First: C82G A111C A145G C150G C169U
Second: C82G A111C A145G C150G C169A
The reverse-splicing fitness of the first is lower: 0.0089 for the first, 0.0091 for the second.

Going from C82G A111C A145G C150G C169G to C82G A111C C150A C169G U176C, the reverse-splicing fitness rises from 0.00707 to 0.024.

Compared with C82G A111C C150A C169G U176A, C82G A111C C150A C169G U176G is lower in reverse-splicing fitness: 0.0173 for the first, 0.00931 for the second.

First: C82G A111G A120C A145G C150A C169U U176C
Second: C82G A111G A120C A145G C150A C169U U176A
The reverse-splicing fitness of the first is lower: 0.015 for the first, 0.0153 for the second.

First: C82G A111G A120C A145G C150A C169U U176G
Second: C82G A111G A120C A145C C150G C169G U176C
The reverse-splicing fitness of the first is lower: 0.00817 for the first, 0.0101 for the second.

First: C82G A111G A120C A145C C150G C169G U176A
Second: C82G A111G A120C A145C C150G C169G U176G
The reverse-splicing fitness of the first is higher: 0.0112 for the first, 0.006 for the second.

Compared with C82G A111C A145G C150A C169G, C82G A111C A145G C150A C169A is higher in reverse-splicing fitness: 0.00789 for the first, 0.00903 for the second.

Compared with C82G A111C A145G C150A C169U, C82G A111G A120C A145C C150A C169A is lower in reverse-splicing fitness: 0.00998 for the first, 0.00953 for the second.

First: C82G A111G A120C A145C C150A C169U
Second: C82G A111G A120C A145C C150A C169G
The reverse-splicing fitness of the first is higher: 0.00986 for the first, 0.00899 for the second.

Compared with C82G A111C A145U C150U C169A, C82G A111C A145U C150U C169U is higher in reverse-splicing fitness: 0.00854 for the first, 0.0121 for the second.

Going from C82G A111C A145U C150U C169G to C82G A111C A145G C150G C169G U176C, the reverse-splicing fitness rises from 0.00905 to 0.0117.

First: C82G A111C A145G C150G C169G U176A
Second: C82G A111C A145G C150G C169G U176G
The reverse-splicing fitness of the first is higher: 0.00869 for the first, 0.00603 for the second.

Compared with C82G A111G, C82G A111G A120C A145C C150G U176G is lower in reverse-splicing fitness: 0.411 for the first, 0.0035 for the second.

First: C82G A111G A120C A145C C150G U176C
Second: C82G A111G A120C A145C C150G U176A
The reverse-splicing fitness of the first is higher: 0.00886 for the first, 0.00574 for the second.

First: C82G A111C A145U C150U U176G
Second: C82G A111C A145U C150U U176C
The reverse-splicing fitness of the first is lower: 0.0297 for the first, 0.0883 for the second.

First: C82G A111C A145U C150U U176A
Second: C82G A111C A145U C150G C169U U176C
The reverse-splicing fitness of the first is higher: 0.0841 for the first, 0.0123 for the second.

Compared with C82G A111C A145U C150G C169U U176A, C82G A111C A145U C150G C169U U176G is lower in reverse-splicing fitness: 0.00811 for the first, 0.00704 for the second.

Compared with C82G A111C A145C U176G, C82G A111C C150U C169U U176C is lower in reverse-splicing fitness: 0.0504 for the first, 0.0142 for the second.

First: C82G A111C C150U C169U U176A
Second: C82G A111C C150U C169U U176G
The reverse-splicing fitness of the first is higher: 0.015 for the first, 0.00854 for the second.

First: C82G A111C A145U C150A C169U U176C
Second: C82G A111C A145U C150A C169U U176G
The reverse-splicing fitness of the first is higher: 0.014 for the first, 0.00816 for the second.

First: C82G A111C A145U C150A C169U U176A
Second: C82G A111C A145G C169G U176G
The reverse-splicing fitness of the first is higher: 0.0139 for the first, 0.00727 for the second.

Compared with C82G A111C A145G C169G U176C, C82G A111C A145G C169G U176A is lower in reverse-splicing fitness: 0.0315 for the first, 0.0207 for the second.

Compared with C82G A111C C150U C169A U176A, C82G A111C C150U C169A U176G is lower in reverse-splicing fitness: 0.0125 for the first, 0.00817 for the second.

First: C82G A111C C150U C169A U176C
Second: C82G A111C C169U U176G
The reverse-splicing fitness of the first is higher: 0.0143 for the first, 0.00759 for the second.

First: C82G A111C C169U U176A
Second: C82G A111C C169U U176C
The reverse-splicing fitness of the first is higher: 0.0194 for the first, 0.0154 for the second.

Going from C82G A111C A145G C150U C169A to C82G A111C A145G C150U C169U, the reverse-splicing fitness rises from 0.0097 to 0.0115.

Going from C82G A111C A145G C150U C169G to C82G A111C A145G C169U U176A, the reverse-splicing fitness rises from 0.00884 to 0.0152.

First: C82G A111C A145G C169U U176C
Second: C82G A111C A145G C169U U176G
The reverse-splicing fitness of the first is higher: 0.0148 for the first, 0.00729 for the second.
